# Assay results reported in PMC8746315, “Biophysical Characterization of Novel DNA Aptamers against K103N/Y181C Double Mutant HIV-1 Reverse Transcriptase”.
# B1: KY23 (ssDNA)
# DNA: CTATAGGGGGTTGCATCTTAGACATTAATGTTCATTTACA
# B2: KY44 (ssDNA)
# DNA: GTGCAAGCGTACGAAGGGATAATTCACTCTAGGAGCTTCT
# B3: KY28 (ssDNA)
# DNA: CCAGAAAGCTCGGGTTCGTTCCACAAATAACACTTGCCC
# B4: KY22 (ssDNA)
# DNA: CACACTAAGGGAGTAGGAATCCGCGGTCACAATGTTCCTG
# B5: KY1 (ssDNA)
# DNA: AGTAAGACTATAATTCAGTCCTCATTGATTTCCCACATCG
# Target: HIV-1 reverse transcriptase, wild type (HIV-1, UniProt P04585;P04585 588-1147;588-1027)
# Experiment: SPR; SPR: 10 mM HEPES pH 7.5, 150 mM NaCl, 80 mM KCl, 5 mM MgCl2, 25 C, RT on NTA chip; NMR: 10 mM Tris-d11 pD 7.6, 200 mM KCl, 1.5 mM sodium azide, 4 mM MgCl2; inhibition assay 25 C, 30 min
# Settings: protein: recombinant; (NTA chip capture); copies: 1;1
row,Binder,Kd [nM]
1,B1,55.2
2,B2,2150
3,B3,1020
4,B4,1040
5,B5,2170
